Source: paper PMC9352680, “A comprehensive thermodynamic model for RNA binding by the Saccharomyces cerevisiae Pumilio protein PUF4”

T1: PUF4 RNA-binding domain (Saccharomyces cerevisiae, UniProt P25339 537-888)
T1 sequence: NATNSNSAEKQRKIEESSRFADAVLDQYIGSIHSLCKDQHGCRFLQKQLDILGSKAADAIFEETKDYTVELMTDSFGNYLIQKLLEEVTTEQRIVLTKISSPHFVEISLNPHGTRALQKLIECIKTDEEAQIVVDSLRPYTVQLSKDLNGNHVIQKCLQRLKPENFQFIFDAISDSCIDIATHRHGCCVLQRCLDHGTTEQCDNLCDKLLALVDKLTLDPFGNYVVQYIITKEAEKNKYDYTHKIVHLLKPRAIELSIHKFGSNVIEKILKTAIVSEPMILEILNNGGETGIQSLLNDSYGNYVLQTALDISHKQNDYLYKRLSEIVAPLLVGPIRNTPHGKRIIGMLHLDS


Molecular target: T1, PUF4 RNA-binding domain
Test: Mg; RNA-MaP; 20 mM Na-HEPES pH 7.4, 30 mM KOAc, 0.75 mM MgCl2, 0.1% Tween-20, 5% glycerol, 0.1 mg/mL BSA, 2 mM DTT; 25 C; 0.0125-409.6 nM protein
Conditions: tags: N-His6-TEV cleaved; C-SNAP kept, Cy3B-labelled; label: tethered on chip by stalled RNA polymerase

Binder	Kd
UCUCUUAAUAUAUAUAUUUCUCUU (ssRNA) [Id_ii_S1_P3E.3_K3.2_C3.2_[C-2A]_[T-1A]_H3.2_A3.1_F3.1_T3.2_[A10T]]	972 nM
UCUCUUAUUAUAUAUAGCUCUCUU (ssRNA) [Id_ii_S1_P3E.3_K3.2_C3.2_[C-2A]_H3.2_A3.1_F3.1_T3.2_[T9G]_[A10C]]	1310 nM
UCUCUUAUUAUAUAUAGUUCUCUU (ssRNA) [Id_ii_S1_P3E.3_K3.2_C3.2_[C-2A]_H3.2_A3.1_F3.1_T3.2_[T9G]_[A10T]]	544 nM
UCUCUUAUUAUAUAUACGUCUCUU (ssRNA) [Id_ii_S1_P3E.3_K3.2_C3.2_[C-2A]_H3.2_A3.1_F3.1_T3.2_[T9C]_[A10G]]	1860 nM
UCUCUUAUUAUAUAUACCUCUCUU (ssRNA) [Id_ii_S1_P3E.3_K3.2_C3.2_[C-2A]_H3.2_A3.1_F3.1_T3.2_[T9C]_[A10C]]	2290 nM
UCUCUUAUUAUAUAUACUUCUCUU (ssRNA) [Id_ii_S1_P3E.3_K3.2_C3.2_[C-2A]_H3.2_A3.1_F3.1_T3.2_[T9C]_[A10T]]	528 nM
UCUCUUUCUACAUUAUCUCUU (ssRNA) [Ib_S1_P4E.1_K4.1_C4.1_H4.1_[G2C]_A4.1_[T5C]_F4.1_T4.1]	1450 nM
UCUCUUAUUAUAUAUACAUCUCUU (ssRNA) [Id_ii_S1_P3E.3_K3.2_C3.2_[C-2A]_H3.2_A3.1_F3.1_T3.2_[T9C]]	599 nM
UCUCUUAUUAUAUAUAAUUCUCUU (ssRNA) [Id_ii_S1_P3E.3_K3.2_C3.2_[C-2A]_H3.2_A3.1_F3.1_T3.2_[T9A]_[A10T]]	814 nM
UCUCUUAUUAUAUAUAUCUCUCUU (ssRNA) [Id_ii_S1_P3E.3_K3.2_C3.2_[C-2A]_H3.2_A3.1_F3.1_T3.2_[A10C]]	993 nM
UCUCUUAUUAUAUAUAUUUCUCUU (ssRNA) [Id_ii_S1_P3E.3_K3.2_C3.2_[C-2A]_H3.2_A3.1_F3.1_T3.2_[A10T]]	383 nM
UCUCUUAUUAUAUAUAUAUCUCUU (ssRNA) [Id_ii_S1_P3E.3_K3.2_C3.2_[C-2A]_H3.2_A3.1_F3.1_T3.2]	424 nM
UCUCUUCGUAUAUAUAGCUCUCUU (ssRNA) [Id_ii_S1_P3E.3_K3.2_C3.2_[T-1G]_H3.2_A3.1_F3.1_T3.2_[T9G]_[A10C]]	419 nM
UCUCUUCGUAUAUAUACCUCUCUU (ssRNA) [Id_ii_S1_P3E.3_K3.2_C3.2_[T-1G]_H3.2_A3.1_F3.1_T3.2_[T9C]_[A10C]]	1710 nM
UCUCUUCGUAUAUAUAACUCUCUU (ssRNA) [Id_ii_S1_P3E.3_K3.2_C3.2_[T-1G]_H3.2_A3.1_F3.1_T3.2_[T9A]_[A10C]]	629 nM
UCUCUUCGUAUAUAUAAUUCUCUU (ssRNA) [Id_ii_S1_P3E.3_K3.2_C3.2_[T-1G]_H3.2_A3.1_F3.1_T3.2_[T9A]_[A10T]]	675 nM

Binder	Kd
UCUCUUCGUAUAUAUAAAUCUCUU (ssRNA) [Id_ii_S1_P3E.3_K3.2_C3.2_[T-1G]_H3.2_A3.1_F3.1_T3.2_[T9A]]	653 nM
UCUCUUUUUACAUUAUCUCUU (ssRNA) [Ib_S1_P4E.1_K4.1_C4.1_H4.1_[G2T]_A4.1_[T5C]_F4.1_T4.1]	914 nM
UCUCUUCGUAUAUAUAUAUCUCUU (ssRNA) [Id_ii_S1_P3E.3_K3.2_C3.2_[T-1G]_H3.2_A3.1_F3.1_T3.2]	488 nM
UCUCUUCCUAUAUAUAGCUCUCUU (ssRNA) [Id_ii_S1_P3E.3_K3.2_C3.2_[T-1C]_H3.2_A3.1_F3.1_T3.2_[T9G]_[A10C]]	980 nM
UCUCUUCCUAUAUAUAGUUCUCUU (ssRNA) [Id_ii_S1_P3E.3_K3.2_C3.2_[T-1C]_H3.2_A3.1_F3.1_T3.2_[T9G]_[A10T]]	787 nM
UCUCUUCCUAUAUAUACGUCUCUU (ssRNA) [Id_ii_S1_P3E.3_K3.2_C3.2_[T-1C]_H3.2_A3.1_F3.1_T3.2_[T9C]_[A10G]]	1950 nM
UCUCUUCCUAUAUAUACCUCUCUU (ssRNA) [Id_ii_S1_P3E.3_K3.2_C3.2_[T-1C]_H3.2_A3.1_F3.1_T3.2_[T9C]_[A10C]]	969 nM
UCUCUUCCUAUAUAUACAUCUCUU (ssRNA) [Id_ii_S1_P3E.3_K3.2_C3.2_[T-1C]_H3.2_A3.1_F3.1_T3.2_[T9C]]	1260 nM
UCUCUUCCUAUAUAUAAGUCUCUU (ssRNA) [Id_ii_S1_P3E.3_K3.2_C3.2_[T-1C]_H3.2_A3.1_F3.1_T3.2_[T9A]_[A10G]]	1540 nM
UCUCUUCCUAUAUAUAACUCUCUU (ssRNA) [Id_ii_S1_P3E.3_K3.2_C3.2_[T-1C]_H3.2_A3.1_F3.1_T3.2_[T9A]_[A10C]]	1070 nM
UCUCUUCCUAUAUAUAUGUCUCUU (ssRNA) [Id_ii_S1_P3E.3_K3.2_C3.2_[T-1C]_H3.2_A3.1_F3.1_T3.2_[A10G]]	770 nM
UCUCUUCCUAUAUAUAUCUCUCUU (ssRNA) [Id_ii_S1_P3E.3_K3.2_C3.2_[T-1C]_H3.2_A3.1_F3.1_T3.2_[A10C]]	1000 nM
UCUCUUUAUACAUUAUCUCUU (ssRNA) [Ib_S1_P4E.1_K4.1_C4.1_H4.1_[G2A]_A4.1_[T5C]_F4.1_T4.1]	23.8 nM
UCUCUUCCUAUAUAUAUUUCUCUU (ssRNA) [Id_ii_S1_P3E.3_K3.2_C3.2_[T-1C]_H3.2_A3.1_F3.1_T3.2_[A10T]]	673 nM
UCUCUUCCUAUAUAUAUAUCUCUU (ssRNA) [Id_ii_S1_P3E.3_K3.2_C3.2_[T-1C]_H3.2_A3.1_F3.1_T3.2]	578 nM
UCUCUUCAUAUAUAUAGGUCUCUU (ssRNA) [Id_ii_S1_P3E.3_K3.2_C3.2_[T-1A]_H3.2_A3.1_F3.1_T3.2_[T9G]_[A10G]]	804 nM
